This assay deals with PybHLH3: Nluc (pear 'Red Zaosu' (P. pyrifolia × P. communis)).

As to “PyMYB107 (co-expressed as competitor) (natural protein)”, the dual-luciferase assay, LUC/REN ratio of the PyUFGT promoter activated by PyMYB10 with PybHLH3; ratio of PyMYB107:PyMYB10 from 0:1 (0.48) to 1:1 (0.26) (LUC/REN ratio) turned out to be 0.26.

The values are drawn from PMC11215833.
